± gives the standard deviation.
Assay: protein stability index of a GFP-peptide fusion (GPS, HEK-293T) (PSI 1-6); higher = more stable
Conditions: c terminus: a fixed tail appended
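Note: 24-mer peptide tiles fused after GFP, lentivirally expressed, FACS-sorted into six equal bins by GFP/DsRed ratio, decoded by Illumina sequencing, PSI is the read-weighted mean bin number.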

Row | Sequence | protein stability index (treatment: DMSO) | protein stability index (treatment: MLN4924 1 uM, 8 h)
1 | TLIDGGEHYWEVRYEPDSKAFGVG [FSD1] | 2.65 ± 0.27 | 2.86 ± 0.39
2 | ALWKHLKSMHREELEKSGHGQAGQ [ZBED2] | 2.98 ± 0.38 | 3.48 ± 0.43
3 | NPPRAEFNYSVGFKDLNESLNALE [APBB1IP] | 3.48 ± 0.26 | 3.65 ± 0.21
4 | ITKQGDGVDFLSWFLNALHSALGG [USP39] | 2.22 ± 0.47 | 2.11 ± 0.21
5 | ETPMAPVPLGPLGETYCEEHGEKI [TRIM15] | 5.39 ± 0.2 | 5.38 ± 0.12
6 | YISETVLAIDAIHQLGFIHRDIKP [STK38L] | 2.33 ± 0.74 | 2.56 ± 0.24
7 | KHMFERSFTQGEGARPLSTRVPRA [MATN2] | 4.07 ± 0.18 | 3.85 ± 0.35
8 | KTEAEIAHIALETLEGHQRAIMAH [FLOT1] | 4.1 ± 0.12 | 4.06 ± 0.3
9 | YAMGITECDNMLMLLSVSQSMSEE [SEPHS2] | 2.16 ± 0.31 | 2.44 ± 0.22
10 | NALTLFNLAQDPQCKEWQVLMCGF [TMEM120A] | 2.26 ± 0.38 | 2.06 ± 0.16
11 | KSNSYPHQLYTSSSHHSHSYIGLP [KMT2E] | 3.03 ± 0.17 | 3.24 ± 0.26
12 | RVLRGRPGAGSRRRGRMALCGQAA [FBXO33] | 4 ± 0.18 | 4.74 ± 0.22
13 | LLSKYCGYREDNIPQLEDVSNFLK [TPH1] | 2.41 ± 0.59 | 2.61 ± 0.57
14 | MDVGETAMVTADSKYCYGPQGSRS [FKBP8] | 4.36 ± 0.31 | 4.51 ± 0.23
15 | KIFNDFKDRMKSDHKRETERVVRE [ZMYND11] | 4.12 ± 0.35 | 4.13 ± 0.081
16 | MGFAAKAMKSVHENMDLNKIDDLM [CHMP4C] | 3.59 ± 0.32 | 3.48 ± 0.3
17 | GDKLKFLSMLLTLKCEMNQMSGEP [ACSBG2] | 2.38 ± 1.1 | 2.56 ± 1
18 | SSCCLHICQGIRGLWGTTLTENTA [PKD2L1] | 2.07 ± 0.21 | 1.97 ± 0.24
19 | VLLNSLQQYRQDQRDGSKSEDELD [CCND2] | 4.32 ± 0.18 | 4.15 ± 0.52
20 | LGHSPVLRNITNSQAPDGRRKSEA [CDC25B] | 3.77 ± 0.4 | 4.22 ± 0.48
21 | AYEYEREGLYEQAFQLLRRFVQAE [TRADD] | 2.27 ± 0.31 | 2.48 ± 0.26
22 | IPAEENASTSTPSSTLVRPIRSRR [FAM189A2] | 5.29 ± 0.16 | 5.33 ± 0.19
23 | QGLLHEAGSTDDRIVVPQRGRSTR [SPNS1] | 5.13 ± 0.32 | 5.14 ± 0.15

Row | Sequence | protein stability index (treatment: DMSO) | protein stability index (treatment: MLN4924 1 uM, 8 h)
24 | VDPDNVVLCLLAADEDDDRDVALQ [GADD45A] | 4.63 ± 0.38 | 4.77 ± 0.08
25 | TDDQLLALLPSLSHCSQLTTLSFY [PRAME] | 2.26 ± 0.37 | 2.05 ± 0.3
26 | VRWLRPVHRQLGEANEEFALRVQQ [AUP1] | 3.1 ± 0.25 | 3.02 ± 0.19
27 | LALGPILRLYKHNSQALLLHSSIL [MFSD9] | 3.12 ± 0.78 | 2.59 ± 0.37
28 | VVAMARKLQDVFEMRFAKMPDEPV [BRD3] | 2.49 ± 0.29 | 2.64 ± 0.35
29 | FIAGLCVFIISTLAIDFIDEGRLL [SOAT2] | 2.81 ± 0.6 | 3.01 ± 0.33
30 | CRLKRCVDIGMMKEFILTDEEVQR [VDR] | 2.49 ± 0.28 | 2.53 ± 0.13
31 | HSTSLKVPLARSLQISEELLSRNQ [LCOR] | 4 ± 0.24 | 3.97 ± 0.099
32 | QGSRSGVSGGSRSLNMSRRDSEST [PHTF1] | 4.86 ± 0.4 | 4.9 ± 0.22
33 | LMSSAVPMTPEDPSFWDCFCFTEE [AASDHPPT] | 3.98 ± 0.25 | 3.86 ± 0.23
34 | MASFPPRVNEKEIVRLRTIGELLA [WSB1] | 2.18 ± 0.3 | 2.14 ± 0.13
35 | CRRSVRLALGRERLGEIHTLPLPA [SPSB1] | 3 ± 0.17 | 2.98 ± 0.11
36 | VLDFDFEKLCSISLSHINAYACLV [USP39] | 2.83 ± 0.59 | 2.56 ± 0.53
37 | EEVAKAVLEQEETAAASRERQEEQ [EPB41L3] | 5.71 ± 0.078 | 5.63 ± 0.19
38 | DSGTCPEVDEEGFTVRPDVTQNST [FCHO1] | 5.43 ± 0.28 | 5.4 ± 0.15
39 | EKEIPVLNELPVPMVARYIRINPQ [CPXM2] | 3.16 ± 0.26 | 3.25 ± 0.18
40 | GEPLALPLDAGEYCVPRGNRRRFR [BEX1] | 4.8 ± 0.27 | 4.99 ± 0.25
41 | RWCCCCGERETRTPEELTILGETQ [CLCN6] | 3.76 ± 0.27 | 3.79 ± 0.18
42 | ASKSKGAAVKLADFGLAIEVQGDQ [CAMK2D] | 4.13 ± 0.37 | 4.37 ± 0.3
43 | VLVNVLQAIYVIDFFWNETWYLKT [DHCR7] | 3.09 ± 0.25 | 3.22 ± 0.27
44 | ERFSSAPCLLGSRVFSQGSHAWEV [TRIM35] | 2.51 ± 0.36 | 2.46 ± 0.2
45 | IAKYSDGASKAAGVFGFFATIVFA [CMTM3] | 2.86 ± 0.57 | 2.74 ± 0.41
46 | TGKWYELQDLQVTDILPQMITLSE [USP39] | 2.51 ± 0.29 | 2.85 ± 0.18

Row | Sequence | protein stability index (treatment: DMSO) | protein stability index (treatment: MLN4924 1 uM, 8 h)
47 | LQCAMEENCLSASAAQTDPTTGYR [LOXL2] | 3.59 ± 0.23 | 3.45 ± 0.29
48 | KYPGPQAEGDSEGLSQGLVDREKG [CHGA] | 5.32 ± 0.3 | 5.36 ± 0.12
49 | LQTVTREKEELLQLSIERGKVLQN [CCDC89] | 4.13 ± 0.25 | 4.42 ± 0.26
50 | EEAEELAKEMSVPFYTSRIDEVLL [GFOD1] | 3.83 ± 0.24 | 4.11 ± 0.33
51 | VPISVTGIAQVKIQGQNKEMLAAA [FLOT1] | 3.52 ± 0.27 | 3.61 ± 0.13
52 | AAAHYTGDKASPDQNASTHTPQSS [CLINT1] | 5.52 ± 0.25 | 5.524 ± 0.042
53 | VEFVRHGDIIRLEHKETSRNLHSH [POMT2] | 3.02 ± 0.27 | 3.04 ± 0.25
54 | GYNDYTINVWDVLKGSRVSILFGH [GNB5] | 2.28 ± 0.39 | 2.3 ± 0.37
55 | KLEPMETERSPGPRLQELLGPSPQ [ZNF263] | 4.43 ± 0.14 | 4.52 ± 0.17
56 | RGAQGVILVYDIANRWSFDGIDRW [RAB40B] | 2.29 ± 0.65 | 2.19 ± 0.15
57 | PDVLRTKPAFIGKTNLDGMITVQL [PTPRD] | 2.52 ± 0.53 | 2.13 ± 0.57
58 | RAVLGANDPEKNFLTTAIRPHGIF [NSDHL] | 2.73 ± 0.47 | 3.33 ± 0.039
59 | LEGWRPDQLYRRKKDNHALVRETD [ELOA2] | 4.45 ± 0.16 | 4.57 ± 0.12
60 | MATTVTCTRFTDEYQLYEDIGKGA [CAMK2B] | 3.25 ± 0.2 | 3.31 ± 0.18
61 | KTQICHTLAVTCQLPIDRGGGEGK [RAD51] | 3.81 ± 0.17 | 3.95 ± 0.42
62 | ADRPFSAPWWFWLSLTGVSLAGAL [POMT2] | 2.93 ± 0.7 | 3 ± 0.48
63 | SQGEVEKLIKCDEIQVDSEEPVFE [KLHL12] | 5.23 ± 0.4 | 5.47 ± 0.25
64 | SLAEVRVGYQSQNISCFFRLVDRD [MYORG] | 2.42 ± 0.24 | 2.45 ± 0.26
65 | SKFRRKDREDSPERCSDSDEEKKA [CLINT1] | 5.43 ± 0.27 | 5.47 ± 0.14
66 | GSCEDEPMDSTMDDAVAGDFALIN [ATE1] | 5.25 ± 0.25 | 5.44 ± 0.16
67 | REYLSEEVQAVHKNTTYDLIANIV [USP39] | 2.23 ± 0.23 | 2.32 ± 0.11
68 | LDADAAQRVVYLEGCGPPLRRWLR [TSPAN10] | 2.69 ± 0.2 | 2.99 ± 0.14
69 | GQRDRKAEHWKHKKEESGRERKKN [PBXIP1] | 5.08 ± 0.12 | 5.4 ± 0.15

Row | Sequence | protein stability index (treatment: DMSO) | protein stability index (treatment: MLN4924 1 uM, 8 h)
70 | PELLSTHPFFDTAEPDMDDPAYIA [INTS4] | 5.12 ± 0.22 | 5.16 ± 0.12
71 | VVHDWLYSYVYQDGLRLLGARARG [SOAT2] | 2.46 ± 0.44 | 2.28 ± 0.25
72 | VVSMTTVGYGDMYPVTIGGKIVGS [KCNA1] | 2.29 ± 0.36 | 2.14 ± 0.24
73 | ANAVISVSGINHDVTSGDHGDYFR [CPN1] | 3.58 ± 0.13 | 3.48 ± 0.31
74 | VFHLPFYSSNQLHHFFCDIAPVLK [OR10K2] | 2.23 ± 0.48 | 2.12 ± 0.15
75 | FWDLFRSKDNMRTRIMIGLTLVFF [SLC2A12] | 2.53 ± 0.55 | 2.67 ± 0.39
76 | GALYGITLIPTCKFYTWLWGVFYY [SCD] | 2.39 ± 0.41 | –
77 | NLLQDSSTSDSDLTCDSSTSSSDD [C18orf25] | 5.53 ± 0.3 | 5.61 ± 0.16
78 | LETLPEFRDEKDYPASTSQDSFEA [KCNA3] | 5.38 ± 0.37 | 5.41 ± 0.2
79 | FLDNGYGHCLLDKPEAPLHLPVTF [ADAMTS4] | 2.07 ± 0.37 | 2.16 ± 0.14
80 | WLSYRLLKASEPGLFAVGEHTGEV [PCDHGA10] | 2.35 ± 0.11 | 2.31 ± 0.16
81 | TELLAKITNTDVDCLKACQEQIEA [CCND2] | 4.45 ± 0.046 | 4.61 ± 0.32
82 | WDPNTGFDLNNLDPELKNLFDMCG [WASL] | 3.05 ± 0.36 | 3.1 ± 0.37
83 | QVTASDSGDPPLSSNVSLSLFVLD [PCDHGA10] | 3.31 ± 0.4 | 3.48 ± 0.29
84 | LIFLSNFPFSLLGLLALAIGLWGL [TSPAN10] | 3.21 ± 0.27 | 2.93 ± 0.25
85 | GPQSRELTLKVLRSSSCGDTELLG [C2CD2L] | 3.47 ± 0.28 | 3.59 ± 0.2
86 | SWEPLSGPSTPSPVAAQFTSEGTT [FCHO1] | 4.61 ± 0.27 | 4.74 ± 0.22
87 | DFSMAEALNQEFLATRSNEKQELQ [PRPH] | 5.05 ± 0.19 | 4.95 ± 0.27
88 | GHAQDLMDGLPPGDSNQLAWFDTD [CTNNB1] | 4.93 ± 0.31 | 4.7 ± 0.27
89 | APKKELINIKGISEAKADKILAEA [RAD51] | 4.05 ± 0.25 | 4.49 ± 0.46

Reference: the supplement of paper PMC10567573
